Experimental data reported in paper PMC6222095.

Target: T1, complement factor H, homozygous Tyr-402/Val-62 allotype (human), P08603
T1 chain: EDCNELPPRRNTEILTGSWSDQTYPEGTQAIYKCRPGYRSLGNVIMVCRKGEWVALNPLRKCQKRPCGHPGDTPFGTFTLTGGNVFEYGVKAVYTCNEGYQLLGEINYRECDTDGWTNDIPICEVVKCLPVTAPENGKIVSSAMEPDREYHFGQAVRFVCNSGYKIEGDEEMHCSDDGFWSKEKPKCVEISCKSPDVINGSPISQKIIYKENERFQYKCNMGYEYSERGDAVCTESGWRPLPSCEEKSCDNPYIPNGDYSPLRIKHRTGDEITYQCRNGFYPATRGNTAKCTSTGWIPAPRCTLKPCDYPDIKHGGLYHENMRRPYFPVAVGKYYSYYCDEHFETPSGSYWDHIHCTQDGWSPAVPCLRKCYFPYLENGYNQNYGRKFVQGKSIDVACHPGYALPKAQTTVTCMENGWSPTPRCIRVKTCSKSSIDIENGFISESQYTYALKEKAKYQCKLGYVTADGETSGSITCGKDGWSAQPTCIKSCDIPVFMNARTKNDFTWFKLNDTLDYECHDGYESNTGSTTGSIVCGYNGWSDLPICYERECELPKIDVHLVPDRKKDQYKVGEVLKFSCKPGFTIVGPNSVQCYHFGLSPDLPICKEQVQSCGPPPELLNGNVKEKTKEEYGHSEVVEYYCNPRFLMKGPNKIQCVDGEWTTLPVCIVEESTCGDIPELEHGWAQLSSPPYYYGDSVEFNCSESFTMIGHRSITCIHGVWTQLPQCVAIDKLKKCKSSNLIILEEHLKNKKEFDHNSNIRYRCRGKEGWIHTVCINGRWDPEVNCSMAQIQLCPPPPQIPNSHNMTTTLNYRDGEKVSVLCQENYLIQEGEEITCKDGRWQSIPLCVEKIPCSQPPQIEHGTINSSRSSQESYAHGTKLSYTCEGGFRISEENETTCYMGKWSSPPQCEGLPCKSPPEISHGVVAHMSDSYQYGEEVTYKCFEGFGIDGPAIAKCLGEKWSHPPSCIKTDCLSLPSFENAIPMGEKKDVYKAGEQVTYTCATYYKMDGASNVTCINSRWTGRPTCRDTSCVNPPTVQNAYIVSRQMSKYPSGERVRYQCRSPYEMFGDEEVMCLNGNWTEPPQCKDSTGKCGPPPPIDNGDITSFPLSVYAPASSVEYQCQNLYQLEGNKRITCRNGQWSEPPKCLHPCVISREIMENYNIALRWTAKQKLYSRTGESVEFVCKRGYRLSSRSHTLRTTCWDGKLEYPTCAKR
Assay: SPR
Settings: natural protein, eight biantennary disialylated N-glycans, sites as printed: Asn-511, Asn-700, Asn-784, Asn-804, Asn-864, Asn-892, Asn-1011, Asn-1077, remark: other sources report otherwise

Kd: > 40 µM
B1: complement factor H, homozygous Tyr-402/Val-62 allotype, P08603 19-1231 (protein)
chain: T1 chain
